From patent US20170059576, “METHOD OF DETERMINING A PROTEIN IN A SAMPLE” (RHEINISCHE FRIEDRICH-WILHELMS UNIVERSITAT BONN, published 2017)

How the values were obtained:
[1] = biological target: T1, c-Met ectodomain-Fc fusion (HGFR) (UniProt P08581 P08581:25-932); assay: filter; competition vs 32P-trCLN3; PBS pH 7.4, 3 mM MgCl2, tRNA 1 mg/ml, BSA 1 mg/ml, 37 C; settings: tags: human IgG1 Fc fusion; His (detected with anti-penta-His); R&D Systems; chain copies: 2; label: biotin; G4
Experimental: (§1) To determine the affinity, ˜10 fmol of radiolabeled aptamer was incubated with protein dilution series for 30 min at 37° C. in 25 μL of buffer containing 1 mg/ml E. coli tRNA (Roche, Mannheim, Germany), 1 μg/ml BSA, 3 mM MgCl₂ in PBS, pH 7.4. For Sec7, 0.005% Triton X-100 was added and for c-Met-Fc, 1 mg/ml of BSA was used instead of 1 μg/ml. The aptamer-protein complexes were captured on a Protran™ nitrocellulose membrane (GE Healthcare) that was pre-incubated in 0.4 M KOH for 10 minutes, followed by washing with ddH₂O and PBS containing 3 mM MgCl₂, pH 7.4. After addition of the aptamer-protein solution, the filter was washed 4 times with PBS containing 3 mM MgCl₂, pH 7.4. Radioactivity was quantified using a Fujifilm Fla-3000 PhosphorImager and AIDA software package. The percentage of bound aptamer was calculated using equation 1: […]

[2] = biological target: T1, c-Met ectodomain-Fc fusion (HGFR); assay: filter; no binding in tested range; in photo-crosslinking 24-fold lower signal than ABAL-trCLN3 at 500 nM c-Met (p87); settings: tags: human IgG1 Fc fusion; His (detected with anti-penta-His); R&D Systems; chain copies: 2; label: biotin
Experimental: as §1

[3] = biological target: T1, c-Met ectodomain-Fc fusion (HGFR); assay: filter; competition vs 32P-trCLN3; PBS pH 7.4, 3 mM MgCl2, tRNA, BSA, 37 C; nanomolar affinity stated; settings: tags: human IgG1 Fc fusion; His (detected with anti-penta-His); R&D Systems; chain copies: 2; label: 5'-32P for radiolabeled tracer; G4 (two G-quadruplexes)
Cytohesin-2 Sec7 domain [4] = biological target: T2, Cytohesin-2 Sec7 domain (UniProt Q99418 Q99418:72-201); assay: filter; competition vs 32P-C10.35; IC50 only in figure; 3 mM MgCl2 in PBS, 0.005% Triton X-100, 37 C; settings: tags: His (detected with anti-penta-His); expressed in E. coli; label: 5'-32P for radiolabeled tracer; stem with a double bulge
T2 sequence: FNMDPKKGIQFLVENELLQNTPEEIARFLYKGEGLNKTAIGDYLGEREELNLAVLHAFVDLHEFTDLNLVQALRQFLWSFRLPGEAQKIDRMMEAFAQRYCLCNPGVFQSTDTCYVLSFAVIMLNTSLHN
Experimental: (§2) To determine the affinity, ˜10 fmol of radiolabeled aptamer was incubated with protein dilution series for 30 min at 37° C. in 25 μL of buffer containing 1 mg/ml E. coli tRNA (Roche, Mannheim, Germany), 1 μg/ml BSA, 3 mM MgCl₂ in PBS, pH 7.4. For Sec7, 0.005% Triton X-100 was added and for c-Met-Fc, 1 mg/ml of BSA was used instead of 1 μg/ml. The aptamer-protein complexes were captured on a Protran™ nitrocellulose membrane (GE Healthcare) that was pre-incubated in 0.4 M KOH for 10 minutes, followed by washing with ddH₂O and PBS containing 3 mM MgCl₂, pH 7.4. After addition of the aptamer-protein solution, the filter was washed 4 times with PBS containing 3 mM MgCl₂, pH 7.4. Radioactivity was quantified using a Fujifilm Fla-3000 PhosphorImager and AIDA software package. The percentage of bound aptamer was calculated using equation 1:
(§3) Filter retention assays in which the 5′-functionalized aptamer competed with the non-functionalized aptamer for binding to Sec-7 were performed as described above to test the influence of the 5′-functionalization on aptamer binding.

Cytohesin-2 Sec7 domain [5] = biological target: T2, Cytohesin-2 Sec7 domain; assay: filter; affinity not altered vs unfunctionalized C10.35; high UV cross-linking; also cross-links in H460 lysate (p104); settings: tags: His (detected with anti-penta-His); expressed in E. coli; label: biotin; stem with a double bulge
Experimental: as §2, §3

Cytohesin-2 Sec7 domain [6] = biological target: T2, Cytohesin-2 Sec7 domain; assay: 365 nm photo-crosslinking, Western blot; marginal at highest concentration only; no band in H460 lysate (p104); settings: tags: His (detected with anti-penta-His); expressed in E. coli; label: biotin
Experimental: Incubation of the target protein Sec7 with the 5′-functionalized aptamer C10.35 was performed by mixing 250 nM of the aptamer with different protein concentrations at 37° C. for 30 min as described in Examples 2 and 4. Crosslinking also was performed on ice by illuminating at 365 nm for 10 minutes.
Further, the amount of cross-linking of the 5′-functionalized aptamer C 10.35 to Sec-7 was investigated after incubating […] 167 nm, 56 nm and 19 nM Sec-7 with 250 nM of the 5′-functionalized aptamers C10.35 and C10.35 C15T, followed by UV irradiation at 365 nm using SDS-PAGE, followed by western blotting using neutravidin-dylight™ 800 (Thermo Scientific) to visualize biotinylated proteins. Anti-penta-his (1:2000, Qiagen) was used to visualize the total amount of Sec7 and goat-anti-mouse-IgG-dylight™ 800 (Thermo Scientific) was used as a secondary antibody. The blots were scanned at 800 nm using an Odyssey scanner (Li-cor Biotechnology, Bad Homburg, Germany).

T1 sequence (P08581 25-932, one chain of several): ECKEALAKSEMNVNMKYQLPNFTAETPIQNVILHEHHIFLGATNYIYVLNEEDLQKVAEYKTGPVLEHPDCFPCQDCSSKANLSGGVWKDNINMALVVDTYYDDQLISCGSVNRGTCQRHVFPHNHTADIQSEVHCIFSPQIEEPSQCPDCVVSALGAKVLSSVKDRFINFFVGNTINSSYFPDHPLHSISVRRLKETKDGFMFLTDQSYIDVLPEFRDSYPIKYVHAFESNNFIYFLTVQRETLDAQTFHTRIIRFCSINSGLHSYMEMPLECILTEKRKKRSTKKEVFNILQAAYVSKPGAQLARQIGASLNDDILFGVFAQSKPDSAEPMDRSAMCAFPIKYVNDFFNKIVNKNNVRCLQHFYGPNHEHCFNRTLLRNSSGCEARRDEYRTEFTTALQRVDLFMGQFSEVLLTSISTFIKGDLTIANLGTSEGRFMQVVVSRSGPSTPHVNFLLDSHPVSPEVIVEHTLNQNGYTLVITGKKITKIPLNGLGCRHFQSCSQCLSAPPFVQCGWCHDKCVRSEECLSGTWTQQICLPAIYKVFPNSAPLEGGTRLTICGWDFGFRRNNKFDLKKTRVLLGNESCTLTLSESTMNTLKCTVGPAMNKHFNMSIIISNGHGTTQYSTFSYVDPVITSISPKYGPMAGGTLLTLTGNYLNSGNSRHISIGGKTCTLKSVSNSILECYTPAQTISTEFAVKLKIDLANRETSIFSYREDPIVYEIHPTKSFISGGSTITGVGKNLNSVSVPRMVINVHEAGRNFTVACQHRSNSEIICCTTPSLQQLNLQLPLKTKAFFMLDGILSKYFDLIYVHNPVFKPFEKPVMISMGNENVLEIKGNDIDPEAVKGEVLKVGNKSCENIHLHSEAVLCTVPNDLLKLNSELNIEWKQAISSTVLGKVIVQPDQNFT

## TGGATGGTAGCTCGGTCGGGGTGGGTGGGTTGGCAAGTCT (ssDNA, 5'-hexylamine coupled Sulfo-SBED (phenyl azide, biotin)) [ABAL-trCLN3]
[1]
  IC50: 50 nM

## TGGATGGTAGCTCGGTCGGGGTGGATGGGTTGGCAAGTCT (ssDNA, 5'-hexylamine coupled Sulfo-SBED (phenyl azide, biotin)) [ABAL-trCLN3 G25A]
[2]
  binding result: no binding

## TGGATGGTAGCTCGGTCGGGGTGGGTGGGTTGGCAAGTCT (ssDNA) [trCLN3]
[3]
  IC50: 76 nM

## ACTCGGGAGGACTGCTTAGGATTGCGAACCCGGGT (ssDNA) [C10.35]
Cytohesin-2 Sec7 domain [4]
  binding result: binds

## ACTCGGGAGGACTGCTTAGGATTGCGAACCCGGGT (ssDNA, 5'-hexylamine coupled Sulfo-SBED (phenyl azide, biotin)) [ABAL-C10.35]
Cytohesin-2 Sec7 domain [5]
  binding result: binds

## ACTCGGGAGGACTGTTTAGGATTGCGAACCCGGGT (ssDNA, 5'-hexylamine coupled Sulfo-SBED (phenyl azide, biotin)) [ABAL-C10.35 C15T]
Cytohesin-2 Sec7 domain [6]
  binding signal: 7 fold lower cross-linking than ABAL-C10.35
